Experimental data reported in IntAct's records for PubMed 19198587.

B1: Far upstream element-binding protein 2 (Homo sapiens), Q92945 (parent)
chain: MSDYSTGGPPPGPPPPAGGGGGAGGAGGGPPPGPPGAGDRGGGGPGGGGPGGGSAGGPSQPPGGGGPGIRKDAFADAVQRARQIAAKIGGDAATTVNNSTPDFGFGGQKRQLEDGDQPESKKLASQGDSISSQLGPIHPPPRTSMTEEYRVPDGMVGLIIGRGGEQINKIQQDSGCKVQISPDSGGLPERSVSLTGAPESVQKAKMMLDDIVSRGRGGPPGQFHDNANGGQNGTVQEIMIPAGKAGLVIGKGGETIKQLQERAGVKMILIQDGSQNTNVDKPLRIIGDPYKVQQACEMVMDILRERDQGGFGDRNEYGSRIGGGIDVPVPRHSVGVVIGRSGEMIKKIQNDAGVRIQFKQDDGTGPEKIAHIMGPPDRCEHAARIINDLLQSLRSGPPGPPGGPGMPPGGRGRGRGQGNWGPPGGEMTFSIPTHKCGLVIGRGGENVKAINQQTGAFVEISRQLPPNGDPNFKLFIIRGSPQQIDHAKQLIEEKIEGPLCPVGPGPGGPGPAGPMGPFNPGPFNQGPPGAPPHAGGPPPHQYPPQGWGNTYPQWQPPAPHDPSKAAAAAADPNAAWAAYYSHYYQQPPGPVPGPAPAPAAPPAQGEPPQPPPTGQSDYTKAWEEYYKKIGQQPQQPGAPPQQDYTKAWEEYYKKQAQVATGGGPGAPPGSQPDYSAAWAEYYRQQAAYYGQTPGPGGPQPPPTQQGQQQAQ

Variants of: B1
Settings: with akt1_human AKT1, P31749
Chain of akt1_human AKT1, P31749 (P31749 whole entry): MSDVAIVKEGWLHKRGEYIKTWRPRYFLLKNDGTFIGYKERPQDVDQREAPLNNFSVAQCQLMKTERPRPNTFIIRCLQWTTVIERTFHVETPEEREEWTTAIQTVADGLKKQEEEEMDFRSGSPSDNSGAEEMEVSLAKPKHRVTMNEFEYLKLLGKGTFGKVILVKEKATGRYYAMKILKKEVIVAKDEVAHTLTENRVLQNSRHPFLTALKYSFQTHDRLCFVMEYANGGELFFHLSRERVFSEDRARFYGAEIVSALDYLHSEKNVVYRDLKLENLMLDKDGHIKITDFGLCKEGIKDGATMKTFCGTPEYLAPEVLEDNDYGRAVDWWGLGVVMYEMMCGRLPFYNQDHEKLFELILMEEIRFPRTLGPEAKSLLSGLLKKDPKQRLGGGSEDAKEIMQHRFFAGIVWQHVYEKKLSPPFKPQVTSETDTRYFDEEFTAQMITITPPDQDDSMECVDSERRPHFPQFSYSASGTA

Variant	effect of a mutation on the interaction
S193A	disrupting interaction
